From US7402570 (Johns Hopkins, dated 2008) come the findings set out here.

The assay deals with T1, human p53 protein, full length (human, UniProt P04637 1-393).
T1 construct: range 1-393; it is not clear whether that entry is whole p53 or the peptide, so it is not used here
Description: yeast two-hybrid, lexA-responsive β-galactosidase reporter; (+) colonies turned blue following 24 hours (strain 4).

T1 sequence (P04637 whole entry): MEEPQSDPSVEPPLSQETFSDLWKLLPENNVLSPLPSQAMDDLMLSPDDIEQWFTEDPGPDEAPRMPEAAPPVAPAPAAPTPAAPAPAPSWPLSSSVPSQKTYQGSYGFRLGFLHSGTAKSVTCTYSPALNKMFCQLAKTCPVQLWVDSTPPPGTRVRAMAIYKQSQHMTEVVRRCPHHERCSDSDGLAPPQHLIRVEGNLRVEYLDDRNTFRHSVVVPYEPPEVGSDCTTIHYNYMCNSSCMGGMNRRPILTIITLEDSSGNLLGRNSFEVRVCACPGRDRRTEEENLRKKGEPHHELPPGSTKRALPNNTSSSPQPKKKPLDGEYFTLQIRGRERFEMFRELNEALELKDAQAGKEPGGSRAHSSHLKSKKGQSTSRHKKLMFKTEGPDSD

B1: lexA-MDM2 (1-118) (other, not shown: small tags and cut ends)
chain: MCNTNMSVPTDGAVTTSQIPASEQETLVRPKPLLLKLLKSVGAQKDTYTMKEVLFYLGQYIMTKRLYDEKQQHIVYCSNDLLGDLFGVPSFSVKEHRKIYTMIYRNLVVVNQQESSDS
notes: Genetically engineered clone, expressed in yeast; also called MDM2 codons 1 to 118 fused to lexA
As for B1, the binding result is listed as “binds”.
